Earlier results on one substance are cited in patent US11147890B2, “Stimuli-responsive particles encapsulating a gas and methods of use” (Children's Medical Center Corporation, priority 2017, dated 2021).

For this series the following is noted: per gram basis.

On to hemoglobin, for which the oxygen carrying capacity is reported as 0.17 mL/g.
